# According to the nanobody polyreactivity screen of Harvey et al. (2022):
# Assay: yeast display, Sf9 membrane polyspecificity reagent, FACS + sequencing; frameworks hold sequencing errors
# In short: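 Nanobodies from a synthetic yeast display library (Saccharomyces cerevisiae BJ5465), induced 36–48 hours with galactose, were stained 1 hour at 4 °C with 10% biotinylated, detergent-solubilized Sf9 membrane reagent, enriched on streptavidin microbeads, then FACS-sorted. Anti-HA (expression) and streptavidin (reagent binding) fluorescence set low and high (top ~1%) gates. Polyreactivity labels come from the gate of origin. Genes were colony-PCR amplified, MiSeq 2 × 250 sequenced and filtered by CDR length.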
row,Sequence,polyreactivity (PSR sort gate)
1,QVQLVESGGGLVQAGGSLRLSCAASGFTFAVYAMGWSRQAAAKERELVAAISRSGTRTYYADSVKGRFTISRDNGKNTVYLQMNSLKPEDTAVYYFAAEVPDTDAYGYWGQGTQVTVSS,low polyreactivity
2,QVQLVESGGGLVQAGGSLRLSCAASGFTFAVYDMGWYRQAPGKERELVAVISSVGSTNYADSVKGRFTISRDNAKNTVYLQMNSLKPEDTAVYYCNAVYWYRDRWYQTGYGYWGQGTQVTVSS,high polyreactivity
3,QVQLVESGGGLVQAGGSLRLSCAASGFTFAVYTMGWYRQAPGKERELVAAITGSGGRTYYADSVKGRFTISRDNAKNTVYLQMNSLKPEDTAVYYCNAVQRSSRQTFEYCGQGTQVTVSS,low polyreactivity
4,QVQLVESGGGLVQAGGSLRLSCAASGFTFAYDAMGWYRQAPGKERELVAAIRRRGGITYYADSVKGRFTISRDNAKNTVYLQMNSLKPEDTAVYYWNAVRSYPAGYDSWGQGTQVTVSS,low polyreactivity
5,QVQLVESGGGLVQAGGSLRLSCAASGFTFAYYAMGSYRQAPGKERELVAAIRKSGATTYYADSVKGRFTISRDNSKNTVYLQMISLKPEDTAVYYCNAVVKSSSRGSIAHPGYDYWGQGTQVTVSS,high polyreactivity
6,QVQLVESGGGLVQAGGSLRLSCAASGFTFAYYAMGWYRQAPGKERELVAAISSGDNTNYADSVKGRFTISRDNAKNTVYLQMNSLKPEDTAVYYCNAEYNFKWWGPYWYYVKDDYWGQGTQVTVSS,low polyreactivity
7,QVQLVESGGGLVQAGGSLRLSCAASGFTFAYYAMGWYRQAPGKERELVAAITSGGSTKYADSVKGRFTISRDNAKNTVYLQMNSVKPEDTAVYYCFLRGRATQWDFGYWGQGTQVTVSS,high polyreactivity
8,QVQLVESGGGLVQAGGSLRLSCAASGFTFAYYAMGWYRQAPGKERELVASITSGGSTYYADSVKGRFTISRDNAKNTVYLQMNSLKPEATAVYYCAARVRSELIKRYYWGQGTQVTVSS,high polyreactivity
9,QVQLVESGGGLVQAGGSLRLSCAASGFTFAYYAMGWYRQAPGKETELVAAITSGGRTNYADSVKGRFTISRDNAKNTVYLQMNSVKPEDTAVDYCAKYRRGGSRHYSVFNHDYWGQGTQVTVSS,high polyreactivity
10,QVQLVESGGGLVQAGGSLRLSCAASGFTFDDYAMGWYRQAPGKERELVAAISWSGGSTYYADSVKGRFTISRDNAKNTVYLQMNSLKPEDTAVYYCAALRTGAQYSTMDYWGQGTQVTVSS,low polyreactivity
11,QVQLVESGGGLVQAGGSLRLSCAASGFTFDDYVMGWYRQAPGKERELVAAISRSGGSTYYADSVKGRFTISRDNAKNTVYLQMNSLKPEDTAVYYCAARTYSWGDWGQGTQVTVSS,high polyreactivity
12,QVQLVESGGGLVQAGGSLRLSCAASGFTFDFYAMGWYRQAPGKERELVAAISKNDGTTYYADSVKGRFTISRDNAKNTVYLQMNSLKPEDTAVYYCAAESGYPVYTYVSSGDYWGQGTQVTVSS,low polyreactivity
13,QVQLVESGGGLVQAGGSLRLSCAASGFTFDFYAMGWYRQAPGKERELVASIRWSGGSTYYADSVKGRFTISRDNAKNTVYLQMNSLKPEDTAVYYCAKSIASAAYDSWGQGTQVTVSS,low polyreactivity
14,QVQLVESGGGLVQAGGSLRLSCAASGFTFDFYVMGWYRPAPGTERELVAANSWDGGTTYYADSVKGRFTISRDNAKNTVYLQLNSLKPEDTAVYYCAADDWVYVPTGAWYLYEYWGQGTQVTVSS,high polyreactivity
15,QVQLVESGGGLVQAGGSLRLSCAASGFTFDGYAMGWDRQAPGKESELVAAISDSGDSTYYADSVKGRFTISRDNAKNTVYLQMNSLTPEDTAVYYCAAGLGYYWSDYFADDSCGQGTQVTVSS,low polyreactivity
16,QVQLVESGGGLVQAGGSLRLSCAASGFTFDINAMGWSRQAPGKERELVAAISRSGGRTYYADSVKGRFTISRDNAKNTVYLQMNSLKPDDTAVYYCAARYPERRYNTFDYWGQGTQVTVSS,high polyreactivity
17,QVQLVESGGGLVQAGGSLRLSCAASGFTFDIYAMGWYRQAPGKERELVATISRSGGTTYYADSVKGRFTISRDNAKNTVYLQMNSLKPEDTAVYYCNAGRYYIGGYWGQGTQVTVSS,high polyreactivity
18,QVQLVESGGGLVQAGGSLRLSCAASGFTFDIYAMGWYRQAPGKEREMVADITSGGSTDYADSVKGRFTISRDNAKNTVYLQMNSLKPEDTAVYYCNGAVFYDPEWQYDYWGQGSQVTVSS,low polyreactivity
19,QVQLVESGGGLVQAGGSLRLSCAASGFTFDKNTMGWYRQAPGKERELVAAITRGGGSTYYADSVKGRFTISRDNAKNTVYLQMNSLKPEDTAVYYCAARYWTKRYRLLDYWGQGTQVTVSS,high polyreactivity
20,QVQLVESGGGLVQAGGSLRLSCAASGFTFDLYAMGWYRQAPGKERELVAAISWSGGSTRYADSVKGRFTISRDNAKNTVYLQMNSLKPEDTAVYYCARQPRLYFKGKLYGYWGQGTQVTVSS,high polyreactivity
21,QVQLVESGGGLVQAGGSLRLSCAASGFTFDRNAMGWYRQAPGKERGLVAAISSSGGRTYYADSVKGRFTISRDNAKNTVYLQMNSLKPEDTAVYYCAATSSYSYDYWGQGTQVTVSS,high polyreactivity
22,QVQLVESGGGLVQAGGSLRLSCAASGFTFDRYANGWYRQAPWKAWELVAAITRRGGSTYYADSVKGRFTISRDNAKKTVYLQMNSLKPEDTAVYYCNARTYVTVDYDYCGQGTQVTVSS,high polyreactivity
